{
  "source": "paper PMC11982978",
  "about": "“Cancer hotspot mutations rewire ERK2 specificity by selective exclusion of docking interactions” (The Journal of Biological Chemistry, 2025)",
  "key": {"[1]": {"target": "T1, Active phosphorylated His6-tagged ERK2 E320K (rat (p-0033 says mouse)), P63086", "T1 chain": "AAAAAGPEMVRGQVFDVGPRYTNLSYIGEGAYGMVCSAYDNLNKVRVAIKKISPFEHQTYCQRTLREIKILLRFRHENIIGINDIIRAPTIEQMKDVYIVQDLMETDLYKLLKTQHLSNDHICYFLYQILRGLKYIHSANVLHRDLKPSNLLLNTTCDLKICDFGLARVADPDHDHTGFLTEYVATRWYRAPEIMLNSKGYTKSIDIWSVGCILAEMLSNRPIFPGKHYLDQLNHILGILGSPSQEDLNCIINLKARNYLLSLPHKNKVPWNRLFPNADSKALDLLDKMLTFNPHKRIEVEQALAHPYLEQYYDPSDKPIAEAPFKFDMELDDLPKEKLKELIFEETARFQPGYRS", "settings": "modification not given; phosphorylated (active form; sites not given)"}, "[2]": {"target": "T2, Active phosphorylated His6-tagged ERK2 R133K (rat (p-0033 says mouse)), P63086", "T2 chain": "T1 chain with R131K, K318E", "settings": "modification not given; phosphorylated (active form; sites not given)"}, "[3]": {"target": "T3, Active phosphorylated His6-tagged ERK2 D319N (rat (p-0033 says mouse)), P63086", "T3 chain": "T1 chain with D317N, K318E", "settings": "modification not given; phosphorylated (active form; sites not given)"}, "[4]": {"target": "T4, Active phosphorylated His6-tagged ERK2 WT (rat (p-0033 says mouse)), P63086", "settings": "modification not given; phosphorylated (active form; sites not given)"}, "[5]": {"target": "T1, Active phosphorylated His6-tagged ERK2 …", "settings": "modification not given; phosphorylated (active form; sites not given)"}, "[6]": {"target": "T3, Active phosphorylated His6-tagged ERK2 …", "settings": "modification not given; phosphorylated (active form; sites not given)"}, "[7]": {"target": "T2, Active phosphorylated His6-tagged ERK2 …", "settings": "modification not given; phosphorylated (active form; sites not given)"}, "[8]": {"target": "T4, Active phosphorylated His6-tagged ERK2 …", "settings": "modification not given; phosphorylated (active form; sites not given)", "remark": "listed apart in the source"}, "[9]": {"target": "T1, Active phosphorylated His6-tagged ERK2 …", "test": "competitive peptide kinase assay; D-peptide titrated as competitive inhibitor of 10 nM ERK2 on 5 μM D-site dependent reporter peptide (AQT0376), 10 μM ATP; 54 mM HEPES pH 7.4, 1.2 mM DTT, 0.01% Brij-35, 1% glycerol, 0.2 mg/ml BSA, 10 mM MgCl2; fluorescence read-out; IC50 as relative binding affinity"}, "[10]": {"target": "T2, Active phosphorylated His6-tagged ERK2 …", "test": "competitive peptide kinase assay; D-peptide titrated as competitive inhibitor of 10 nM ERK2 on 5 μM D-site dependent reporter peptide (AQT0376), 10 μM ATP; 54 mM HEPES pH 7.4, 1.2 mM DTT, 0.01% Brij-35, 1% glycerol, 0.2 mg/ml BSA, 10 mM MgCl2; fluorescence read-out; IC50 as relative binding affinity"}, "[11]": {"target": "T3, Active phosphorylated His6-tagged ERK2 …", "test": "competitive peptide kinase assay; D-peptide titrated as competitive inhibitor of 10 nM ERK2 on 5 μM D-site dependent reporter peptide (AQT0376), 10 μM ATP; 54 mM HEPES pH 7.4, 1.2 mM DTT, 0.01% Brij-35, 1% glycerol, 0.2 mg/ml BSA, 10 mM MgCl2; fluorescence read-out; IC50 as relative binding affinity"}, "[12]": {"target": "T4, Active phosphorylated His6-tagged ERK2 …", "test": "competitive peptide kinase assay; D-peptide titrated as competitive inhibitor of 10 nM ERK2 on 5 μM D-site dependent reporter peptide (AQT0376), 10 μM ATP; 54 mM HEPES pH 7.4, 1.2 mM DTT, 0.01% Brij-35, 1% glycerol, 0.2 mg/ml BSA, 10 mM MgCl2; fluorescence read-out; IC50 as relative binding affinity"}, "[13]": {"target": "T3, Active phosphorylated His6-tagged ERK2 …", "settings": "modification not given; phosphorylated (active form; sites not given)"}, "[14]": {"target": "T4, Active phosphorylated His6-tagged ERK2 …", "settings": "modification not given; phosphorylated (active form; sites not given)", "remark": "listed apart in the source"}, "[15]": {"target": "T2, Active phosphorylated His6-tagged ERK2 …", "settings": "modification not given; phosphorylated (active form; sites not given)"}, "[16]": {"target": "T1, Active phosphorylated His6-tagged ERK2 …", "settings": "modification not given; phosphorylated (active form; sites not given)"}},
  "note": "Residue numbers refer to the chain shown, from its start. Where two headings read alike, the source gives them in different places. Ends that are not written are not given here.",
  "data": [
    {"binder": "GLQERRGSNVSLTL (not fully specified (some residues, N-terminus))", "note": "[PTPN5]", "values": [
      {"measurement": "IC50", "setting": "[1]", "result": 600, "unit": "µM"},
      {"measurement": "IC50", "setting": "[2]", "result": 760, "unit": "µM"},
      {"measurement": "IC50", "setting": "[3]", "result": 600, "unit": "µM"},
      {"measurement": "IC50", "setting": "[4]", "result": 42, "unit": "µM"}
    ]},
    {"binder": "PQKGRKPRDLELPL (not fully specified (some residues, N-terminus))", "note": "[ELK1]", "values": [
      {"measurement": "IC50", "setting": "[5]", "result": 43, "unit": "µM"},
      {"measurement": "IC50", "setting": "[6]", "result": 32, "unit": "µM"},
      {"measurement": "IC50", "setting": "[7]", "result": 58, "unit": "µM"},
      {"measurement": "IC50", "setting": "[8]", "result": 35, "unit": "µM"}
    ]},
    {"binder": "IRARRGGLPRLAVSD (modifications not checked)", "note": "[ISG20 D-peptide G7+]", "values": [
      {"measurement": "IC50", "setting": "[9]", "result": 210, "unit": "µM"},
      {"measurement": "IC50", "setting": "[10]", "result": 170, "unit": "µM"},
      {"measurement": "IC50", "setting": "[11]", "result": 150, "unit": "µM"},
      {"measurement": "IC50", "setting": "[12]", "result": 75, "unit": "µM"}
    ]},
    {"binder": "IGRARRGLPRLAVSD (modifications not checked)", "note": "[ISG20 D-peptide G2+]", "values": [
      {"measurement": "IC50", "setting": "[9]", "result": 170, "unit": "µM"},
      {"measurement": "IC50", "setting": "[10]", "result": 150, "unit": "µM"},
      {"measurement": "IC50", "setting": "[11]", "result": 150, "unit": "µM"},
      {"measurement": "IC50", "setting": "[12]", "result": 120, "unit": "µM"}
    ]},
    {"binder": "ARRKPVLPALTINP (not fully specified (some residues, N-terminus))", "note": "[MAP2K2]", "values": [
      {"measurement": "IC50", "setting": "[13]", "result": 23, "unit": "µM"},
      {"measurement": "IC50", "setting": "[14]", "result": 23, "unit": "µM"},
      {"measurement": "IC50", "setting": "[15]", "result": 29, "unit": "µM"},
      {"measurement": "IC50", "setting": "[16]", "result": 41, "unit": "µM"}
    ]}
  ]
}
